Here are results for 17 sequences from the DeepSol protein solubility set.

This data set in a line: soluble on expression in E. coli; label from the status in PepcDB or PDB records.
On to “MGSDKIHHHHHHMKLPRFGVEEWLNVHENSAIYDIAGVSISSLTLEELFALSGTNPEDFYKKLQGTKLNYGWIEGSPAFKKSVSQLYTGVKPEQILQTNGATGANLLVLYSLIEPGDHVISLYPTYQQLYDIPKSLGAEVDLWQIEEENGWLPDLEKLRQLIRPTTKMICINNANNPTGAVMDRTYLEELVEIASEVGAYILSDEVYRSFSELDVPSIIEVYDKGIAVNSLSKTYSLPGIRIGWVAANHQVTDILRDYRDYTMICAGVFDDLVAQLALAHYQEILERNRHILEENLAILDQWIEEEPLVSYIRPAVVSTSFVKIAVDMPMEDFCLQLLQEHGVLLVPGNRFERDGYVRLGFACEQETLIKGLEKLSQFLRRFDKEN”, for which the “soluble on expression in E. coli” value is on record as “not soluble”.
With “MGSDKIHHHHHHMKLSCSQSELNNALQLVSRAVSNRPTHPVLANVLLAADEVTGKLRLTGFDLSLGIQTSISASIDSSGAITLPAKLFGEIVSKLSNDSPLVLTSDETSQQVELTSKSGTYQVRGMLSDDFPELPLVENGTSFKLNPLLLSNAIKSTLFASSTDDAKQLLTGVNLTFDGYGIESAATDGHRLAVLNLNNILSDSKEIDSSIKFEKFSITLPSKSLREVEKFLSTCDISHPINFFIDKGQVVFISVEDIITIRALEGSYPNYSQLLPDTFENELEFDRKEFISSLERIAVLADQHNNVIKVTTDGSANLIKISTDAQDIGTGYESLPVSYKGDSFQIAFNVRYLLDGLKVIDSNLIKLSCNSPTTPAIFSPINSDVNFTYLVMPIQIRN” the entry was “not soluble”; with “MGSDKIHHHHHHMKLSFEVLEALDAIDRAGTFAEAAVLIHRVPSALSYLVQKAESDLGVILFDRSGRRAQLTEAGRLLVEDGRRLLQAGRELESKVRGVHAGWEAELRLCLDEILPLPSLWPHVRAFYDMELTTRLRLSTEVLGGVWDALVTGRADIAIGAAGEPPHAPNIAARPIGLLRHVFVVAPHHPLAAVEQPLDSDTISSHRGVIISDTSRALEPRSVAIHDGQPVIIVPTLAAKLDLLCEGMAVGMLPAPVVEEAIRQGKLVERRVIGVRDHTTCYLGWREDKTGRALKWWINRLDQIDLISTLFSTRGVAA”, “not soluble”; with “MGSDKIHHHHHHMKMSEKKEARVVINDLLAEQYANAFKAKEEGRPVGWSTSVFPQELAEVFDLNVLYPENQAAGVAAKKGSLELCEIAESKGYSIDLCAYARTNFGLLENGGCEALDMPAPDFLLCCNNICNQVIKWYENISRELDIPLIMIDTTFNNEDEVTQSRIDYIKAQFEEAIKQLEIISGKKFDPKKFEEVMKISAENGRLWKYSMSLPADSSPSPMNGFDLFTYMAVIVCARGKKETTEAFKLLIEELEDNMKTGKSSFRGEEKYRIMMEGIPCWPYIGYKMKTLAKFGVNMTGSVYPHAWALQYEVNDLDGMAVAYSTMFNNVNLDRMTKYRVDSLVEGKCDGAFYHMNRSCKLMSLIQYEMQRRAAEETGLPYAGFDGDQADPRAFTNAQFETRIQGLVEVMEERKKLNRGEI”, “not soluble”.
With “MGSDKIHHHHHHMKNFVVTTSHKPDREQVMKAKELAEKLGTIYVSRRRLKEFKVDFYYVVEKNRISIKWPGGEFFFHPSSAILRMRNIRSGQKDYLIESLQPEGNEIVLDTTFGLGSEAILMAAFLPEGKVIGLEGSIHIYTIVKYGMENFETDIRWLKDALKRIELYHANFKEYIRSQPDNSFDVVYCDPMFENPVYESSAMNPLRPFAVYDTVNEEDIEEMLRIAKKKVILKSHVKDSLFKRIRVDELKGSRKSGVLYGVIYKR” the entry was “not soluble”; with “MGSDKIHHHHHHMKPNNWVSSSQATELLSKQLVTWPLAEKNYKALEAVQVKSFDMGGFSIRAQFNPARIVSTGAKVDARSLKERKCFLCPENLPVEQERLPFGFRHLVLCNPYPIFPQHFTIPTRKHTPQLILPQWNDFLELTRRLAPFTVFYNGPRSGASAPDHAHFQAVTRGIMPLDEEVTQFIRQSYASVYDNRIYPLTGNLRPGLVIQAATEEAATRLFKKIYAALPILPGEPEPMMNIFGSYYDNNWVITVIPRKRHRPWQYEAEGNDHLLSSPGAADIGGLFITPLEKDFKKINPELLRDVYQQVCLNDRDVEEIFVHLSSN”, “not soluble”; with “MGSDKIHHHHHHMKQEFLHIASSLWATVAAQISRHTGQTFAPESLTPIGGGCINQTFCIRDHERQYFVKLNKAGNLAMFESEAAGLGEILDSASLRVPQPLCCGSHHDDAWLVLEFIDLQNRGNAAALGIGLANMHRHTAETFGWIRDNTIGSTPQRNATASDWISFWRQHRLGYQLNLARKNGHTGSLQSLGERLLSEFQHFFTDTLPLPSLLHGDLWGGNYAFDQDGQPVIFDPAVYYGDREADLAMTELFGGFPPDFQAAYRDTWPVETGYTTRKQLYNLYHILNHLNLFGPQYLSQAEITMKKLLAELY”, “not soluble”.
On to “MGSDKIHHHHHHMKQIGIIGCGWFGLPLAQALKQLGHKVIGTKRSIEGCEQLASLGITACPLDLNDDIFYNEAFANNTFANNINELLECQVLVINIPPGLRKKAGKAESRYLEQLSNLVHFIGPRGYQKLVFISTTGVYPAGDDAELPLSEADAKAHNDASEILLNAEALFAPMDNSCILRFAGLVGPNRHPGRFFAGKTGISGANVAVNLVHLDDCIGAVIKVINADKTAPVYNIVAPEHPSRGEFYPLATTHLGLVAPVFNQEVMPTKVISGALICQQLGFIYQYPDPLKMLYAC”, for which the “soluble on expression in E. coli” value is “not soluble”.
As for “MGSDKIHHHHHHMKQLVGIPESMLIPLIARAKEYENEKPIIKDALSKKIFDGLDDMYKNVTCDDMSQIGISIRTVIIDCVTKRLIKDNKDLIVVNIGCGLDTRFQRFNKEKISWIDLDVPESIEIRKTFFKESNSYKMISKSMLDYSWIDDVKNYKFFNSKSDILFIIEGVLMYFDESVMTQLLDTIIKKMGDHNLTFAIEFCSKTIANNTKRHQSVSKLSSQPVFKYGYNDLKKLNEILPNTIRVIHEYNYFDYYKNRWGLFGYCRFIPYLKKRLNNKIVLMKYKVPKRQRH”, the “soluble on expression in E. coli” value is “not soluble”.
With “MGSDKIHHHHHHMKREEIADLMAFVVVAEERSFTRAAARLSMAQSALSQIVRRIEERLGLRLLTRTTRSVVPTEAGEHLLSVLGPMLHDIDSAMASLSDLQNRPSGTIRITTVEHAAKTILLPAMRTFLKSHPEIDIQLTIDYGLTDVVSERFDAGVRLGGEMDKDMIAIRIGPDIPMAIVGSPDYFSRRSVPTSVSQLIDHQAINLYLPTSGTANRWRLIRGGREVRVRMEGQLLLNTIDLIIDAAIDGHGLAYLPYDQVERAIKEKKLIRVLDKFTPDLPGYHLYYPHRRHAGSAFSLFIDRLKYKGAV” the entry was “not soluble”; with “MGSDKIHHHHHHMKRILVSLYEKEKYLDILRELHEKGWEIWASSGTAKFLKSNGIEANDVSTITGFENLLGGLVKTLHPEIFAGILGPEPRWDVVFVDLYPPPDIDIGGVALLRAAAKNWKKVKPAFDMETLKLAIEIDDEETRKYLAGMTFAFTSVYDSIRANQFVEGISLAFKREDLQLRYGENPHEKAFVYGKPAFEILHEGKTISFNNILDAENAWFMAKNLPRMGAVVVKHQSPCGAAIGEDKVEIVKKAIEADDESSFGGILAVNFEMDEEVAKSLKKYLEVIVAPSFTQEAIEVLSKKKVRLLKPGDYASWAGKMAFGSLVLSERKYPEGNFELVVGEPLSEKELEDLEFAYRVVEGAKSNAVLIAKDGVTVGIGSGQPSRKRAAWIATVMAGEKAKGAVAASDAFFPFPDSLEILAQAGVKAVVAPLGSIRDEEVIEKARELGITFYKAPSRVFRH”, “soluble”; with “MGSDKIHHHHHHMKRRILFIHNNLGGGGAEGALIEVLNHLDYNRYDVTLFLLYRTGDFIDRVPPQVHFKHEQFGRFFPGYKGKIAIRCGLRNMLLRCCAKRVFANEKYDTIVSFMESAPAKFHSYILDKGKRNITWVHCDLLNNHYTTGFFLTLKQEQKFYSRMDDVIFVSEDAKKNFSKLFGIDKGRVIYNIIDQRAICKRSKAVSSMPRHRTFTFVNVGSLKEIKRQDRIIETAALLKARGYDADFWLIGKGIWEERLKAQATALNVSDSVHFLGFQSNPYPYVAAADVFLMTSDSEGFPLVVAEAMCLGKAVISTRITGPMEMLGNGRYGILTGFSPEEIANSAISLIEDPKLLSSYQHLAYERSISYFDVNGVMTQIHDVIGN”, “not soluble”.
With “MGSDKIHHHHHHMKSLIHCLFLIPLFFVQAHAEVTITLPDSAEPLLLNGKDITSHQLISQNGPQQLVFNARASYREFGQQKRFVSETLIVTFSGENNHYRVSLPKISSPKSAEKFNDVPQIGLTDTQGNKVAYKIDKLLKDGIQIGRNYSEEIKAYNIGQGVAAIAINQPVQMAPSTSSSASSGAASPAATSTALAAQQTTAPQGAQPVGQPTSQPNTQPVSQTGTPRRDQINVGQMLDFWYEQADEATREAFKKRIGLIEQAQRDGH” the entry was “not soluble”.
Consider “MGSDKIHHHHHHMKSNLFMKRKLEIGLSLLIGTSVFGGCNNDLAPIRQSQTFPPNLNAPTVFESFSPDSGGVKTQLIIRGQNFGTDTAYLKVTVNNKRAAIVGVADDVIYAIVPARADTGYVRLFVGKDDNVEEYASQTKFIYQFKRNVTTLMGRQGQSGRDDGPYAECKLQRPWFALADKDGALFFIDEGRGQNKNGALRRAQEGWVETLVQNSSGPFQSPTCLAFNPKQDTLYISNMSYGSDIKTSFNILYVTREGGFMDVKGLCKFEKAETQGLAVHPQTGEIFFCNKSGGYIYRFNGPDYEDYEPLFQINRADKIDTRMVFNPEGTALFVVVCNRHCIYKVPYNALTHTFGEPELFAGGWDESGYVNGSGVTARFDNPRQPAFDQDGNMFVPEYGRHTIRKITPTGEVSLYAGLPGQAGFTDGLPEKARFNKPECVTVYLDNSLYVADRDNHLIRRVTVE”, for which the “soluble on expression in E. coli” value is “not soluble”.
As to “MGSDKIHHHHHHMKTIRIGSGAGYAGDRIEPAVELAQKGDIQYLVFECLAERTIAIGQKQKQQNPEKGYNELLADRMHAVLPLCLEKGIKIITDMGSANPVAAGQRVLEIAKELGADKLKIAIVTGDDVHSVLIAQDSKLDEIGLPISRCGKDILSANAYLGADALVEALRQGADVIIAGRVSDPSLFLSAMMYEFDWAADDWDRLGKGTCLGHLLECAGQITGGYYADPGVKDIPNLDRLGFPIAEITEDGSAVITKVEGSGGCVCVDTCKEQLLYEIHRPDSYITPDVIADFSHVTFTQDGENRVRVQGATGREKTGTLKVSVGYQDGFIGEGEISYAGPGAVARGRLALDIVKGRFALCQLDLQEVRYDLIGVDALHGAQRSQSSEPYEVRARVAARCTSRAQAVKVGNEVETLYTNGPAGGGGVNKSVKEILAMDSTLLSRACVTPAVDYLEIK”, the “soluble on expression in E. coli” value is recorded as “not soluble”.
As for “MGSDKIHHHHHHMKTQQERQPGKIATKFNQEKTREGKKLKIAVVAQDSQYPSTIQRFLAEADKSYPLISLIGGVQQVAAVAEQEQPDLLMLEGQYFSSMELETLNRVTSRFPDVGVVMLCPAQPPELLIEVMRAGVREVLPTPLTRHGVIDAVERFQQRIALSRMPMHECKVLAFIPCKGGSGATFLATNIAYALAAQENKRVALFDFNLQFGDASLFVQDGPPATSIADVARQIQRLDGSFLNSSMIQVLPNFGMLAAPESPEKAAEIRSEHINPLFQVAMKHYDFVILDVGRELDAISIQALDRADLIFPVLQQTLPSIRDARRMSAAFAALNYPDEKIRLIVNRYKKNADITLDDIESTLNLKIFKVVPNDYAVVTGSVNQGIPATKLAPRSPVAKSLQEIAHELCRGAGQGNLLRKLFAF”, the entry is “not soluble”.
With “MGSDKIHHHHHHMKTRIVQKQFKRKETKYIVDKKTFELLEKELRQYMMADEFATSTITNIYFDNEDFDMIQDSLAKKNGREKIRMRVYDAIPSESSQAFLEIKKKENKIGYKYRLTSNPVSVANYIENGVIDSTIKDDKVNSELEMLRERYGTIKPKMYIYYDRVSYKGIEDKKVRLTIDKNLLYRDYDVDAMEGKFGKNLLDPTKVIMEVKVPEERPDWLVALLEKYQIEKQSFSKYGNAYKLAHNITGEEVSQHAVV” the entry was “not soluble”.
